{"source": "paper PMC3308923", "origin": "cited, not measured here", "molecular_target": "HIV-1 capsid CA (Human immunodeficiency virus 1) (UniProt O93182)", "sequence (O93182 133-363)": "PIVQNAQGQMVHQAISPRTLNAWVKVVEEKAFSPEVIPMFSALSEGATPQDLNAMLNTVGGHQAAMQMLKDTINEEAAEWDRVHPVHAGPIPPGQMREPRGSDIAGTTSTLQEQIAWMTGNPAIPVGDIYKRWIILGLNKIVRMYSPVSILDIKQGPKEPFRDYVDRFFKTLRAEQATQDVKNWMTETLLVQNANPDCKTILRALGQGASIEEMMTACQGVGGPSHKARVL", "details": "cited from earlier work"}
{"substance": "CAI peptide", "values": [{"measurement": "Kd", "result": 15, "unit": "µM"}]}
